Experiment [1] deals with Endothelial protein C receptor (human) (UniProt Q9UNN8). As to the kind of experiment: cell-based or functional assay.
The target in experiment [2] is Protease-activated receptor 1 (human) (UniProt P25116). As to the kind of experiment: cell-based or functional assay.

Where “and” joins values, the source holds several entries; their conditions need not be identical. Identical values can stand only once.

Chain of Endothelial protein C receptor (human) (Q9UNN8 18-238): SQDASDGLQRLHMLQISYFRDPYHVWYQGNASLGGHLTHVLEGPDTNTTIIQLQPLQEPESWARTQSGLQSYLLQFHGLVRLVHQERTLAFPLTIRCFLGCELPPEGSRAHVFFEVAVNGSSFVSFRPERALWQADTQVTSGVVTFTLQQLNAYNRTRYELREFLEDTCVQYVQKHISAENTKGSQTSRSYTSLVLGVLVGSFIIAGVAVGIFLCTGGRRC
Chain of Protease-activated receptor 1 (human) (P25116 42-425): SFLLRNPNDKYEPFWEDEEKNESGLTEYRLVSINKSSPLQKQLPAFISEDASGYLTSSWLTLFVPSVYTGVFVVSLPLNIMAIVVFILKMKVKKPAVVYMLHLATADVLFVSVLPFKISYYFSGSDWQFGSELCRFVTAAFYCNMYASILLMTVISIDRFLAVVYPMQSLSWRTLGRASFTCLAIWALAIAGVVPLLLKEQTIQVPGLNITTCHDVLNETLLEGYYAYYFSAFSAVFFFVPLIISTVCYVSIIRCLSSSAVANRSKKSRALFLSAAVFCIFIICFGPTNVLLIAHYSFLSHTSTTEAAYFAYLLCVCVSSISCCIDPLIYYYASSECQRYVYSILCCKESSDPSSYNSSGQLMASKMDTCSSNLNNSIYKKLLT

Turning to “Activated protein C (from UniProt P04070 43-461)”, the inhibition of LPS (100 ng/mL)-mediated HMGB1 release by HUVECs (ELISA) in experiment [1] was > 10 nM and 100 nM.

Turning to “PCgla/meizothrombin (meizothrombin with its Gla-domain replaced by that of protein C; Factor Xa-activated PCgla/prothrombin-3A)”, the inhibition of LPS (100 ng/mL)-mediated HMGB1 release by HUVECs (ELISA) in experiment [1] was below 1 nM. This substance also returned an efficacy relative to APC in inhibiting adherence and migration of THP-1 cells across HMGB1-activated HUVEC monolayer in experiment [2] of 20 to 50 fold.

Values taken from patent US20130071375A1.
